Data on 2 substances can be found in patent US20030192074A1.

The target of test [1] is AvrMla1 avirulence gene product of Erysiphe graminis f. sp. hordei (Erysiphe (=Blumeria) graminis f sp hordei).
For test [2], the target named is AvrMla6 avirulence gene product of Erysiphe graminis f. sp. hordei (Erysiphe (=Blumeria) graminis f sp hordei).
Test [3] has the same target. This is another data set of the same source.

Turning to “MLA1 polypeptide (product of R gene A, Mla1, of barley line CI-16137, AlgR Mla1)”, the percent of GFP-Mlo expressing cells with an attached spore that support a fungal colony (3-component single-cell assay, mlo-5 barley leaves, isolate K1) in test [1] turned out to be 9.3%. The percent of GFP-Mlo expressing cells with an attached spore that support a fungal colony (3-component single-cell assay, mlo-5 barley leaves, isolate A6) in test [2] came out at 47.1%. The substance also yielded a percent of GUS stained wheat (CERCO) cells with an attached spore that contain haustorium, isolate A6 in test [3] of 23.9%.

In test [1], “MLA6 polypeptide (product of Mla6 of barley line C.I. 16151)” yielded a percent of GFP-Mlo expressing cells with an attached spore that support a fungal colony (3-component single-cell assay, mlo-5 barley leaves, isolate K1) of 46.5%. The substance further showed a percent of GFP-Mlo expressing cells with an attached spore that support a fungal colony (3-component single-cell assay, mlo-5 barley leaves, isolate A6) in test [2] of 9.4%. In addition, in test [3], the percent of GUS stained wheat (CERCO) cells with an attached spore that contain haustorium, isolate A6 was 9.2%.
